Square brackets hold non-standard residues; d marks the D form. GABA = NCCCC(=O)O
How the values were obtained:
[1] = molecular target: T1, BC2T W10D peptide (BC2TW10X library) (human); assay: BC2TW10X library pulldown with immobilized Nb, LC-MS of the supernatant
T1 construct: also called W10 permutant D
T1 peptide: Ac-PDRKAAVSHDQQ-NH2
Method: (§1) To investigate the binding specificity of the BC2T and derived mutants peptide libraries for each amino acid position of the sequence […] (SEQ ID NO:4) were synthesized with acetyl and amide groups located at the N-termini or C-termini respectively (Intavis). […] Incubations were performed in 300 μl PBS/0.01% CHAPS for 1 h on a HulaMixer (Life Technologies). Subsequent to a centrifugation step 10 μl supernatant were analyzed in a LC-MS procedure. Peptides were separated using an UltiMate3000 RSLCnano System (Thermo Scientific), composed of a C18 PepMap100μ-Precolumn (300 μm×5 mm; particle size: 5 μm; pore size: 100 Å—Thermo Scientific) and a C18 analytical column (Acclaim Rapid Separation LC (RSLC) Column: 150 mm×5 mm; particle size: 2.2 μm; pore size: 100 Å—Thermo Scientific). A step gradient was applied starting at 8% and ending after 20 min at 30% eluent B (80% acetonitrile, 20% H₂O, 0.1% formic acid). Peptides were analyzed using a FULL-MS-strategy detected by a Q Exactive Plus mass spectrometer (Thermo Scientific). As maximal injection time 100 ms was chosen while setting the AGC target to 3E6. The resolution was set to 70.000. Half-maximal signal areas were referenced to control precipitation approaches using a GFP-specific nanobody immobilized on agarose beads. All experiments were done in triplicates.

[2] = molecular target: T2, BC2T W10L peptide (BC2TW10X library) (human); assay: as above
T2 construct: Isobaric with the isoleucine peptide; also called W10 permutant L
T2 peptide: Ac-PDRKAAVSHLQQ-NH2
Method: as §1

[3] = molecular target: T3, BC2T W10Q peptide (BC2TW10X library) (human); assay: as above
T3 construct: also called W10 permutant Q
T3 peptide: Ac-PDRKAAVSHQQQ-NH2
Method: as §1

[4] = molecular target: T4, BC2T W10C peptide (BC2TW10X library) (human, also: Abu described as gamma-amino butyric acid); assay: as above
T4 construct: also called W10 permutant C(Abu)
T4 peptide: Ac-PDRKAAVSH[GABA]QQ-NH2
Method: as §1

[5] = molecular target: T5, BC2T W10K peptide (BC2TW10X library) (human); assay: as above
T5 construct: also called W10 permutant K
T5 peptide: Ac-PDRKAAVSHKQQ-NH2
Method: as §1

[6] = molecular target: T6, BC2T W10I peptide (BC2TW10X library) (human); assay: as above
T6 construct: Isobaric with the leucine peptide; also called W10 permutant I
T6 peptide: Ac-PDRKAAVSHIQQ-NH2
Method: as §1

[7] = molecular target: T7, BC2T W10H peptide (BC2TW10X library) (human); assay: as above
T7 construct: also called W10 permutant H
T7 peptide: Ac-PDRKAAVSHHQQ-NH2
Method: as §1

[8] = molecular target: T8, BC2T W10G peptide (BC2TW10X library) (human); assay: as above
T8 construct: also called W10 permutant G
T8 peptide: Ac-PDRKAAVSHGQQ-NH2
Method: as §1

[9] = molecular target: T9, BC2T W10N peptide (BC2TW10X library) (human); assay: as above
T9 construct: also called W10 permutant N
T9 peptide: Ac-PDRKAAVSHNQQ-NH2
Method: as §1

[10] = molecular target: T10, BC2T W10M peptide (BC2TW10X library) (human); assay: as above
T10 construct: also called W10 permutant M
T10 peptide: Ac-PDRKAAVSHMQQ-NH2
Method: as §1

[11] = molecular target: T11, BC2T W10R peptide (BC2TW10X library) (human); assay: as above
T11 construct: also called W10 permutant R
T11 peptide: Ac-PDRKAAVSHRQQ-NH2
Method: as §1

[12] = molecular target: T12, β-catenin peptide 109-123 (human, UniProt P35222); assay: pepscan: 15-mer peptide on OVA-microspheres, biotinylated BC2-Nb, streptavidin-PE
T12 construct: synthetic 15-mer; additional N-terminal cysteine for coupling; also called Start 109 End 123
T12 peptide (looked up): IPSTQFDAAHPTNVQ
Source text: (§2) As negative controls, microspheres comprising Ovalbumin and the Myc-peptide ([…]) covalently coupled to OVA-microspheres were used. […] Evaluation of the PE-signals were done in a Flexmap 3D (Luminex).

β-catenin peptide 81-95 = molecular target: T13, β-catenin peptide 81-95 (human, UniProt P35222); assay: as above
T13 construct: synthetic 15-mer; additional N-terminal cysteine for coupling; also called Start 81 End 95
T13 peptide (looked up): DIDGQYAMTRAQRVR
Source text: as §2

β-catenin peptide 29-43 = molecular target: T14, β-catenin peptide 29-43 (human, UniProt P35222); assay: as above
T14 construct: synthetic 15-mer; additional N-terminal cysteine for coupling; also called Start 29 End 43
T14 peptide (looked up): SYLDSGIHSGATTTA
Source text: as §2

β-catenin peptide 53-67 = molecular target: T15, β-catenin peptide 53-67 (human, UniProt P35222); assay: as above
T15 construct: synthetic 15-mer; additional N-terminal cysteine for coupling; also called Start 53 End 67
T15 peptide (looked up): EEEDVDTSQVLYEWE
Source text: as §2

β-catenin peptide 1-15 = molecular target: T16, β-catenin peptide 1-15 (human, UniProt P35222); assay: as above
T16 construct: synthetic 15-mer; additional N-terminal cysteine for coupling; also called Start 1 End 15
T16 peptide (looked up): MATQADLMELDMAME
Source text: as §2

β-catenin peptide 33-47 = molecular target: T17, β-catenin peptide 33-47 (human, UniProt P35222); assay: as above
T17 construct: synthetic 15-mer; additional N-terminal cysteine for coupling; also called Start 33 End 47
T17 peptide (looked up): SGIHSGATTTAPSLS
Source text: as §2

β-catenin peptide 73-87 = molecular target: T18, β-catenin peptide 73-87 (human, UniProt P35222); assay: as above
T18 construct: synthetic 15-mer; additional N-terminal cysteine for coupling; also called Start 73 End 87
T18 peptide (looked up): SFTQEQVADIDGQYA
Source text: as §2

[13] = molecular target: T19, β-catenin peptide 101-115 (human, UniProt P35222); assay: as above
T19 construct: synthetic 15-mer; additional N-terminal cysteine for coupling
T19 peptide (looked up): ETLDEGMQIPSTQFD
Source text: as §2

B1: BC2 nanobody (VHH)
VHH: QVQLVESGGGLVQPGGSLTLSCTASGFTLDHYDIGWFRQAPGKEREGVSCINNSDDDTYYADSVKGRFTIFMDNAKDTVYLQMNSLKPEDTAIYYCAEARGCKRGRYEYDFWGQGTQVTVSS
notes: Alpaca VHH, 122 aa; also called BC2-Nb; BC2 nanotrap (BC2-Nb immobilized on agarose/Sepharose beads); not shown: C-terminal 6xHis-tag added by the pHEN6 vector
Which results are given for B1?
binding result [1]: no binding; binding result [2]: no binding; binding result [3]: no binding; binding result [4]: no binding; binding result [5]: no binding; binding result [6]: no binding; binding result [7]: no binding; binding result [8]: no binding; binding result [9]: no binding; binding result [10]: no binding; binding result [11]: no binding; binding result [12]: no binding (tested: 1 µg/ml BC2-Nb); binding result (β-catenin peptide 81-95): no binding (tested: 1 µg/ml BC2-Nb); binding result (β-catenin peptide 29-43): no binding (tested: 1 µg/ml BC2-Nb); binding result (β-catenin peptide 53-67): no binding (tested: 1 µg/ml BC2-Nb); binding result (β-catenin peptide 1-15): no binding (tested: 1 µg/ml BC2-Nb); binding result (β-catenin peptide 33-47): no binding (tested: 1 µg/ml BC2-Nb); binding result (β-catenin peptide 73-87): no binding (tested: 1 µg/ml BC2-Nb); binding result [13]: no binding (tested: 1 µg/ml BC2-Nb)

Source: patent publication US20170137467A1 (CHROMOTEK, published 2017)
